Source: the nanobody polyreactivity screen of Harvey et al. (2022)

Assay: yeast display, Sf9 membrane polyspecificity reagent, FACS + sequencing; frameworks hold sequencing errors
Summary of the method: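 Galactose induction of a Saccharomyces cerevisiae BJ5465 synthetic nanobody display library ran 36–48 hours. The cells were then stained for 1 hour at 4 °C with 10% biotinylated, detergent-solubilized Sf9 membrane reagent, pulled down on streptavidin microbeads and FACS-sorted into low and high (top ~1%) gates on expression and reagent-binding fluorescence. Labels for polyreactivity follow the gate of origin.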

Sequence	polyreactivity (PSR sort gate)
QVQLEESGGGLVQAGGSLRLSCAASGSTFSYYAMGWYRQAPGKERELVAAITYSVGSTYYADSVKGRFTISRDNAKNTVYLQMNSLKPEDTAVYYCNKRYYYSRANYPYDYWGQGTQVTVSS	low polyreactivity
QVQLEESGGGLVQAGGSLRLSCAASGSTFVYNPMGWYRQAPGKETELVAVITYRGGRTYSADSVKGRFTISRDYAKNSVYLQMNSLKPEDTAVYYCAKRVYGSKVRGYDYWGQGTQVTVSS	high polyreactivity
QVQLEESGGGLVQAGGSLRLSCAASGSTFYSYVMGWYRQAPGKERELVAAISSIGGSTYYADSVKGRFTISRDNAKNTVYLQMNSLKPEDTAVYYCAAEPPGSTYEGGYWGQGTQVTVSS	low polyreactivity
QVQLEESGGGLVQAGGSLRLSCAASGSTIDYYTMGWYRQAPGKERELVAAISSSGGSTYYADSVKGRFTISRDNAKNTVYLQMNSLKPEDTAVYYCNSDSWYPDHFSYYGPYDYWGQGTQVTVSS	low polyreactivity
QVQLEESGGGLVQAGGSLRLSCAASGSTIHSYAMGWYRHAPGKERELVAAITTTGTRTYYADSVKGRFTISRDNAKNTVYLQMNSLKPEDTAVYYCNAQRLQAHRTSRRYGFWGQGTQVTVSS	high polyreactivity
QVQLEESGGGLVQAGGSLRLSCAASGSTLNRYPMGWNRHATGKERELVATIRWSGGSTYYADSVKPRFTISRYNEKHTVDLQMNSLKAEDTAVYYCAPDRYYYRGRYYGYTREFDYWGQGTHVTVSS	high polyreactivity
QVQLEESGGGLVQAGGSLRLSCAASGSTYYYYAMGWYRQAPGKERELVAAISRSGITYYADSVKGRFTISRDNAKNTVYLQMNSLKPEDTAVYYCAAGRRFDQSMYYWGQGTQVTVSS	high polyreactivity
QVQLEESGGGLVQAGGSLRLSCAASGYTFSFYAMGWYRQAPGKERELVAAISRSGGSTYYADSVKGRFTISRDNAKNTVYLQMNSLKPEDTAVYYCAARWPGAYHEYGYWGQGTQVTVSS	high polyreactivity
QVQLEESGGGLVQAGGSLRLSCAAYGSIFRFYAMGRYRQAPGKERQFVASITGTGGSTYYADSVKGRFTISRDNAKNTVYLQMNSLKPEDTAVYYCAKTQYSFPRLGYDYWGQGTQVTVSS	high polyreactivity
QVQLEESGGGLVQAGGSLRLSCAAYGSIFYKNAMGWYRQAPGKERELVAAITYSGGSTYYADSVKGRFTISRDNAKKTVYLQMNSLKPEDTAVYYCAADIGVYGERREEEYDYWGQGTQVTVSS	low polyreactivity
QVQLEESGGGLVQAGGSLRLSCAPSGLTFGGNAMGWYRQAPGKERELVAAISSGGSTNYADSVKGRFTISRDNAKNTDFLNMNSLKPEDTAVYYCAARDRPGNYFTEYGYWGQGTQVTVSS	low polyreactivity
QVQLEESGGGLVQAGGSLRLSCASSGRIFQVNTMGWYRQAPGKESELVAAISASVGSTYYADSVKGRFTISRDNAKNTVYLQMNILKPEDTAVYYCAKSLGYSVVRTLSPTGFYYWGQGTQVTVSS	low polyreactivity
QVQLEESGGGLVQAGGSLRLSCSASGRIFIKYAMGWYRQAPGKEREFVAAISGRGGSTYYADSVKGRFTISRDNAKNTVYLQMNSLKPEDTAVYYWAKRFFSTGTAAGMYYWGQGTQVTVSS	high polyreactivity
QVQLEESGGGLVQAGGSLRLSFAASGRIFRRYAMGWYRQAPVKERELVAAISSRGGRTYYADSVKGRFTISRDNAKNTVYLQMNSLKPDDTAVYYCAAYYFFTDTYGPYEYWGQGTQVTVSS	high polyreactivity
QVQLEESGGGLVQAGGSLRLSSAASGYIFDWYAMGWYRQAPGKEREFVAAISGSDGSTYYADSVKGRFTISRDNAKNTVYLQMNSLKPVDTPVYYCAADPYYGDMEYWGQGTQVTVSS	low polyreactivity
QVQLEESGGGLVQAGGSLRLTCAASGRIFYRYAMGWYRQAPGKEREFVAAISGTGGSTYYADSVKGRFTISRDNAKNTVNLQMNSLKPEDTAVYYCAAVSYYSSGYDYWGQGTQVTVSS	high polyreactivity
QVQLEESGGGLVQAGGSLRLTCDASGLIFSYYAMGWYRQAPGKERELVAAITGSGGTTYYADSVKGRFTISRDNAKNTVLLQMNSLKPEDTAVYYCATPPPEVWQRWYREYDYWGQGTQVTVSS	low polyreactivity
QVQLEESGGGLVQAGGSLSLSCAASGFIFPTYAMGWYRQAPGKERELVAVISGGGRTKYADSVKGRFTISRDNAKNTVYLQMNSLKPEDTAVYYCNADYWKGWTKFEYWGQGTQVTLSS	high polyreactivity
QVQLEESGGGLVQAGGSLSLSCAASGSIFYGYAMGWYRQAPGKERELVAAITSGGRTYYADSVKGRFTISRDNAKNTVYLQMNSLKPEDTAVYYCNAVYRKTSYGYWGQGTQVTVSS	high polyreactivity
QVQLEESGGGLVQAGGTLRLSCAASGSTYVPYAMGWNRQETGKERELVSAIRRRGDSTNYADSVKGRFTISRDNAKNTVYLQMNSLKPEDTAVYYCAVRPYRSACGSVTRGAYYYWGQGTQVTVSS	high polyreactivity

Sequence	polyreactivity (PSR sort gate)
QVQLEESGGGLVQAGRSLRLSCAASGRTFNAYTMGWYRQAPGKERELVAAITSSGGNTYYADSVKGRFTISRDNVKNSVSLQINSLKPEDTAVYYCTTVYLYGTHDYWGQGTQVTLSS	low polyreactivity
QVQLEESGGGLVQAGVSLRLSCAASGRIFGVYTMGWYRQAPGKERELVAAISRTGGRTYYADSVKGRFTISRDNAKNTVYLQMNSLKPEDTAVYYCAADSRGEDYYYWGQGTQVTVSS	high polyreactivity
QVQLEESGGGLVQEGGSLRLICAASGSTFYVYARGWYRQAPGKERELVAAITGSTGSTYYADSVKGRFTISRDNAKNTVELQMNSLKTEVTAFYYCDADFYGVPIIYDYWRQGTQVTVSS	low polyreactivity
QVQLEESGGGLVQSGGSLRLSCAASGITFARYTMGWYRQAPGKERELVAAISSAGNTYYGDSVKGRFTISRDNAKNTVYLQMNSLKPEDTAVYYCAREYTYYPRWVGYDAYGEDYWGQGTQVTVSS	low polyreactivity
QVQLEESGGGLYQAGGSLRLSCAASGSILDFNAMVWYRQAPGKEMELVASIRWSGGSTYYADSVKGRFTISRDYAKNTVYFQMNSLKPEDTAVYYCAAVTYGYYRSRYSSIQPNEYDYLGQGTQVTVSS	high polyreactivity
QVQLEESGGGVVQAGGSLRLSCAASGRTFYHKAMGWYRQAPGKETQVVATINSGGSTYADSVKGRFTISRDNAKNTVYLQMNSVKPEDTAVYYCAATFWSRSRFYYGYDYWGQGTQVTVSS	high polyreactivity
QVQLEESGGGVVQAGGSLRLSCAASGSIFRKYAMGWYRQAPGKERELVATISWNGGRTHYADSVKGRFTISRDNAKNTVYLLMNSLKPEDTAVYYCNKDAASFRHFYGYGYWGQGTQVTVSS	low polyreactivity
QVQLEESGGRLVQAGGSLRLICAASGRIFRFYTMGWYIQAPGKERELVAAITSSGRTYYADSVKGRFTISRDNAKNTVYLQMKSLKPEDTAVYYCNKYFRPRTILPSPGEYLGQGTQVTVSS	high polyreactivity
QVQLEESGGRLVQAGGSLRLSCAASGLIFAVYAMGWYRQAPGKERELVASSTGSTYYADSVKGRFTISRDNAKNTVYLQMNSLKPEDHAVYYCAADIIRVLDIPLYYWGQGSQVTVSS	low polyreactivity
QVQLEESGGRLVQAGGSLRLSCAASGRTFDGNTMGWYRQAPGKERELVAAITYSGTSTYYADSVKGRFTISRDNAKNTVDVQMNSLKPEDTAVYYCNKPRYYSTYRRYYWGQGTQVTVSS	high polyreactivity
QVQLEESGRGLVPAGGSLRLSCAASGFTFDYNTMGWYRQAPGKERELVAAISFRGTSTYYADSVKGRFTISRDNAKNTVYLQMNSLKREDTAVYYCATRDYHVPGRFYYWGQGTQVTVSS	high polyreactivity
QVQLEESGRGLVQAGGSLRLSCAASGSTLNYNTMGWYRQAPGKVRELVATISSRGGRTDYADSVKGRFTFSRDNAKNNVYLQMNSLIPEYTAVYSCNALPRVVYTVGQSTFYYWGQGTQVTVSS	high polyreactivity
QVQLEESGRGLVQAGGSLRLSCAASVSTCCENAMGWYRQAPGKERELVAAISWGGGSKYYADSVKGRFTISRDNAMNTVYLQMNSLKQEDTAVYYCNADVFDDYGYFESDYWGQGTQVTVSS	low polyreactivity
QVQLEESGVGLVQAGGSLRLSCAASGFIFSFYAMGWSRQAPGKERELVAVISKSGGSTYYADSVKGRFTISRDNAKNTVYLQMNSLKPEDTAVYFCAADSTVGRLLSFDYWGQGTQVTVSS	low polyreactivity
QVQLEESGVGLVQAGGSLRLSCAASGSIYGYAMGWYRQSPGKQRELVASISSGGSTYYADSVKGRFTISRDNAKNSVYLQMNSLKPEDTAVYYCAARAYSYQAQSYYWGQGTQVTVSS	high polyreactivity
QVQLEESRGGLVHAGGSLRLSCAASGYSFYIYAMGWYRQAPGKERELVAAISSSGGRTYYADSVKGRFTISRDNAKNTVYLQMNSLKPEDTAVYYCNALYRYGWLYAPKYNSCGQGTQVTVSS	high polyreactivity
QVQLEESRGGLVQAGGSLRLICAASGFTFRQNAMGWYRQAPGKERELVAAISRGGGGTHYADSVKGRFSISRDNAKNTVYLQMNSLKPEDTAVYYCAKRRYPTFVVPVYYWGQGTQVTVSS	high polyreactivity
QVQLEESVGGLVQAGVSLRLSCAASGRFFYFYAMGWYRQAPAKERELVASISSGGITIYADSVKGRFTISRDNSKYTVYLQMYSLKREDTAVYYCNAGYASGKYSGVYLYGYLGQGTQVTVSS	low polyreactivity
QVQLEETGGGLVQAGGSLPLSCAASGRTFRFYTMGWYRQAPGKERELVAVISNGGSTNYADSVKGRFTISRDNANTTVYLQMNSLKPEDTAVYDCAAGWVWSGNDYYYWGQGTQVTVSS	low polyreactivity
QVQLEETGGGLVQAGGSLRLSCAASGLTFGVYAMGRYRQAPGKEMELVAAITWRGDTTYYADSVKGRFTISRYNAKNTVYLQMNSLKPEDSAVYYCAKDVPYRRVRSEYWGQGTQVTVSS	low polyreactivity
